Experiments:
Assay in all cases: specificity ELISA as in Example 2, receptor coated
[1] = biological target: T1, Soluble DR4 protein (R&D Systems Catalog #347-DR-100/CF) (human, UniProt O00220 24-239, limits assumed)
T1 construct: also called human DR4; TRAILR1
T1 sequence (looked up): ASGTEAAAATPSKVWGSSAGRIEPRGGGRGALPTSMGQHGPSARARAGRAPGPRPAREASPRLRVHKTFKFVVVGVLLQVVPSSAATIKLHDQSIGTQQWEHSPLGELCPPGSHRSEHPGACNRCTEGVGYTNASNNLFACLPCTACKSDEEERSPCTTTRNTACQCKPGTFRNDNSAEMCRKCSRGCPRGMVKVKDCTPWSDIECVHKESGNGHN
Experimental: (§1) Soluble DR5, DR4, DcR1, or DcR2 protein (R&D Systems Catalog #631-T2-100/CF, 347-DR-100/CF, 630-TR-100/CF, 633-TR-100 respectively) were coated on an ELISA plate at 2 μg/mL in 100 mM NaHCO₃ pH 9.5 overnight at 4° C. A solution of 2% BSA in PBS was used for the blocking and antibody incubation steps. The plate was blocked for 1 hour at room temperature, then incubated with mouse anti-human DR5 mAb (Acris Antibodies Catalog #AM31206AF-N) for 1 hour at room temperature. anti-DR5 mAb was 3-fold serially diluted to concentrations ranging from 1 to 200 μg/mL. After washing 3 times with PBS plus 0.05% Tween-20, the plate was incubated with rat anti-mouse kappa-HRP (Southern Biotech Catalog #1180-05) for 1 hour at room temperature, protected from light. After washing 3 times with PBS plus 0.05% Tween-20, the plate was incubated with TMB substrate (BD Biosciences Catalog #555214) for 20 minutes at room temperature. The reaction was stopped with 1M H₂SO₄ and absorbance at 450 nm was determined using a microtiter plate reader.
(§2) For Human Anti-DR5 mAb ELISAs, 1:2000 Mouse Anti-Human Lambda-HRP (Southern Biotech Catalog #9180-05) or 1:6000 Mouse Anti-Human Kappa-HRP (Southern Biotech Catalog #9230-05) was used for detection.
(§3) An IgG version and pentameric IgM-J chain version of anti-DR5 mAb #2 were tested for binding specificity by ELISA as described in Example 2. As shown in FIG. 8A (IgG) and FIG. 8B (IgM), the antibodies bound to human DR5 but not human DR4 or either of the decoy receptors DcR1 or DcR2.

[2] = biological target: T2, Soluble DcR2 protein (R&D Systems Catalog #633-TR-100) (UniProt Q9UBN6 56-211, limits assumed)
T2 construct: also called decoy receptor DcR2; TRAILR4
T2 sequence (looked up): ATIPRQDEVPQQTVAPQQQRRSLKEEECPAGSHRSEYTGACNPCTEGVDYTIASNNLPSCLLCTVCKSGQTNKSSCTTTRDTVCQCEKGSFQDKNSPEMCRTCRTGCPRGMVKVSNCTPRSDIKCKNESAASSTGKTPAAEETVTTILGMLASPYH
Experimental: as §1, §2, §3

[3] = biological target: T3, Soluble DcR1 protein (R&D Systems Catalog #630-TR-100/CF) (UniProt O14798 26-221, limits assumed)
T3 construct: also called decoy receptor DcR1; TRAILR3
T3 sequence (looked up): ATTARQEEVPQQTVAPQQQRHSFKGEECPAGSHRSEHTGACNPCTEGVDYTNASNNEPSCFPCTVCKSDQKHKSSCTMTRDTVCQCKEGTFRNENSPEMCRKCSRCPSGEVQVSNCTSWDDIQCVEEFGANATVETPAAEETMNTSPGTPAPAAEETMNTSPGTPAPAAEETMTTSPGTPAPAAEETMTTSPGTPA
Experimental: as §1, §2, §3

Measured: binding result

B1: Anti-DR5 mAb #2, pentameric IgM-J chain version (antibody, V domains shown)
VH: QVQLQESGPGLVKPSQTLSLTCTVSGGSISSGDYFWSWIRQLPGKGLECIGHIHNSGTTYYNPSLKSRVTISVDTSKKQFSLRLSSVTAADTAVYYCARDRGGDYYYGMDVWGQGTTVTVSS
VL: EIVLTQSPGTLSLSPGERATLSCRASQGISRSYLAWYQQKPGQAPSLLIYGASSRATGIPDRFSGSGSGTDFTLTISRLEPEDFAVYYCQQFGSSPWTFGQGTKVEIK
modifications: Assembled as a pentamer of bivalent IgM binding units with one J chain (10 VH/VL pairs); the letters do not carry this.
notes: VH and VL were inserted into proprietary IgM vectors; also called DR5 MAb IgM #2; IgM Anti-DR5 mAb #2; not shown: IgM heavy-chain constant region, kappa light-chain constant region and J chain of the construct
no binding: all assays above

Source: US20180009897A1 (IGM BIOSCIENCES, published 2018)
